# Data published in the supplement of paper PMC10567573.
# B1: CCND2 (parent)
# chain: YFKCVQKDIQPYMRRMVATWMLEV
# Variants of: B1
# Assay: protein stability index of a GFP-peptide fusion (GPS, HEK-293T) (PSI 1-6); higher = more stable
# Settings: c terminus: a fixed tail appended
# 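Note: lentivirally expressed fusions sorted by FACS into six bins by GFP to DsRed ratio, PSI derived from sequencing read proportions per bin multiplied by bin number.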
row,Variant,protein stability index
1,YFKCVQKDIDPYMRRMVATWMLEV,2.77
2,YFKCVQKDIEPYMRRMVATWMLEV,2.32
3,YFKCVQKDIFPYMRRMVATWMLEV,1.99
4,YFKCVQKDIGPYMRRMVATWMLEV,2.42
5,YFKCVQKDIHPYMRRMVATWMLEV,2.84
6,YFKCVQKDIIPYMRRMVATWMLEV,3.17
7,YFKCVQKDIKPYMRRMVATWMLEV,3.06
8,YFKCVQKDILPYMRRMVATWMLEV,2.64
9,YFKCVQKDIMPYMRRMVATWMLEV,2.06
10,YFKCVQKDINPYMRRMVATWMLEV,3.3
11,YFKCVQKDIPPYMRRMVATWMLEV,3.81
12,YFKCVQKDIRPYMRRMVATWMLEV,2.02
13,YFKCVQKDISPYMRRMVATWMLEV,3.22
14,YFKCVQKDITPYMRRMVATWMLEV,2.71
15,YFKCVQKDIVPYMRRMVATWMLEV,2.5
16,YFKCVQKDIWPYMRRMVATWMLEV,3.11
17,YFKCVQKDIYPYMRRMVATWMLEV,3.78
18,YFKCVQKDIQCYMRRMVATWMLEV,2.36
19,YFKCVQKDIQDYMRRMVATWMLEV,2.22
20,YFKCVQKDIQEYMRRMVATWMLEV,2.85
21,YFKCVQKDIQFYMRRMVATWMLEV,3.77
22,YFKCVQKDIQHYMRRMVATWMLEV,4.06
23,YFKCVQKDIQIYMRRMVATWMLEV,2.9
24,YFKCVQKDIQKYMRRMVATWMLEV,2.82

row,Variant,protein stability index
1,YFKCVQKDIQMYMRRMVATWMLEV,3.69
2,YFKCVQKDIQNYMRRMVATWMLEV,2.54
3,YFKCVQKDIQQYMRRMVATWMLEV,3.25
4,YFKCVQKDIQSYMRRMVATWMLEV,2.5
5,YFKCVQKDIQTYMRRMVATWMLEV,2.34
6,YFKCVQKDIQVYMRRMVATWMLEV,2.82
7,YFKCVQKDIQWYMRRMVATWMLEV,3.21
8,YFKCVQKDIQYYMRRMVATWMLEV,2.74
9,YFKCVQKDIQPAMRRMVATWMLEV,3.33
10,YFKCVQKDIQPCMRRMVATWMLEV,2.89
11,YFKCVQKDIQPDMRRMVATWMLEV,3.35
12,YFKCVQKDIQPHMRRMVATWMLEV,2.54
13,YFKCVQKDIQPIMRRMVATWMLEV,2.54
14,YFKCVQKDIQPKMRRMVATWMLEV,3.07
15,YFKCVQKDIQPLMRRMVATWMLEV,3.19
16,YFKCVQKDIQPMMRRMVATWMLEV,5.01
17,YFKCVQKDIQPNMRRMVATWMLEV,2.38
18,YFKCVQKDIQPPMRRMVATWMLEV,1.89
19,YFKCVQKDIQPQMRRMVATWMLEV,3.19
20,YFKCVQKDIQPRMRRMVATWMLEV,4.86
21,YFKCVQKDIQPSMRRMVATWMLEV,2.83
22,YFKCVQKDIQPTMRRMVATWMLEV,2.66
23,YFKCVQKDIQPVMRRMVATWMLEV,3.11
24,YFKCVQKDIQPWMRRMVATWMLEV,2.43

row,Variant,protein stability index
1,YFKCVQKDIQPYARRMVATWMLEV,3.23
2,YFKCVQKDIQPYCRRMVATWMLEV,2.43
3,YFKCVQKDIQPYDRRMVATWMLEV,2.8
4,YFKCVQKDIQPYERRMVATWMLEV,2.88
5,YFKCVQKDIQPYFRRMVATWMLEV,3.07
6,YFKCVQKDIQPYGRRMVATWMLEV,2.58
7,YFKCVQKDIQPYHRRMVATWMLEV,2.92
8,YFKCVQKDIQPYIRRMVATWMLEV,3.3
9,YFKCVQKDIQPYKRRMVATWMLEV,3.64
10,YFKCVQKDIQPYQRRMVATWMLEV,2.65
11,YFKCVQKDIQPYRRRMVATWMLEV,2.42
12,YFKCVQKDIQPYTRRMVATWMLEV,2.96
13,YFKCVQKDIQPYVRRMVATWMLEV,1.66
14,YFKCVQKDIQPYYRRMVATWMLEV,3.66
15,YFKCVQKDIQPYMARMVATWMLEV,3.47
16,YFKCVQKDIQPYMCRMVATWMLEV,2.77
17,YFKCVQKDIQPYMDRMVATWMLEV,2.16
18,YFKCVQKDIQPYMERMVATWMLEV,2.24
19,YFKCVQKDIQPYMGRMVATWMLEV,2.28
20,YFKCVQKDIQPYMIRMVATWMLEV,2.63
21,YFKCVQKDIQPYMKRMVATWMLEV,1.44
22,YFKCVQKDIQPYMLRMVATWMLEV,4.22
23,YFKCVQKDIQPYMNRMVATWMLEV,2.06
24,YFKCVQKDIQPYMPRMVATWMLEV,3.71

row,Variant,protein stability index
1,YFKCVQKDIQPYMQRMVATWMLEV,1.73
2,YFKCVQKDIQPYMSRMVATWMLEV,3.39
3,YFKCVQKDIQPYMTRMVATWMLEV,4.32
4,YFKCVQKDIQPYMVRMVATWMLEV,2.55
5,YFKCVQKDIQPYMWRMVATWMLEV,1.74
6,YFKCVQKDIQPYMYRMVATWMLEV,3.2
7,YFKCVQKDIQPYMRAMVATWMLEV,1.77
8,YFKCVQKDIQPYMRCMVATWMLEV,3.12
9,YFKCVQKDIQPYMRDMVATWMLEV,3.42
10,YFKCVQKDIQPYMREMVATWMLEV,3.42
11,YFKCVQKDIQPYMRFMVATWMLEV,4.08
12,YFKCVQKDIQPYMRGMVATWMLEV,2.35
13,YFKCVQKDIQPYMRHMVATWMLEV,2.75
14,YFKCVQKDIQPYMRIMVATWMLEV,2.75
15,YFKCVQKDIQPYMRKMVATWMLEV,2.36
16,YFKCVQKDIQPYMRLMVATWMLEV,2.33
17,YFKCVQKDIQPYMRNMVATWMLEV,3.95
18,YFKCVQKDIQPYMRPMVATWMLEV,3.69
19,YFKCVQKDIQPYMRSMVATWMLEV,2.55
20,YFKCVQKDIQPYMRVMVATWMLEV,3.01
21,YFKCVQKDIQPYMRWMVATWMLEV,3.97
22,YFKCVQKDIQPYMRYMVATWMLEV,2.81
23,YFKCVQKDIQPYMRRAVATWMLEV,3.12
24,YFKCVQKDIQPYMRRDVATWMLEV,2.09

row,Variant,protein stability index
1,YFKCVQKDIQPYMRREVATWMLEV,2.45
2,YFKCVQKDIQPYMRRFVATWMLEV,3.28
3,YFKCVQKDIQPYMRRGVATWMLEV,3.04
4,YFKCVQKDIQPYMRRHVATWMLEV,2.35
5,YFKCVQKDIQPYMRRIVATWMLEV,3.33
6,YFKCVQKDIQPYMRRKVATWMLEV,2.67
7,YFKCVQKDIQPYMRRLVATWMLEV,3.06
8,YFKCVQKDIQPYMRRNVATWMLEV,1.51
9,YFKCVQKDIQPYMRRPVATWMLEV,3.25
10,YFKCVQKDIQPYMRRQVATWMLEV,2.91
11,YFKCVQKDIQPYMRRRVATWMLEV,2.65
12,YFKCVQKDIQPYMRRSVATWMLEV,2.58
13,YFKCVQKDIQPYMRRTVATWMLEV,3.51
14,YFKCVQKDIQPYMRRVVATWMLEV,2.3
15,YFKCVQKDIQPYMRRYVATWMLEV,2.41
16,YFKCVQKDIQPYMRRMAATWMLEV,1.55
17,YFKCVQKDIQPYMRRMCATWMLEV,3.2
18,YFKCVQKDIQPYMRRMDATWMLEV,3.18
19,YFKCVQKDIQPYMRRMEATWMLEV,2.49
20,YFKCVQKDIQPYMRRMFATWMLEV,2.44
21,YFKCVQKDIQPYMRRMGATWMLEV,3.39
22,YFKCVQKDIQPYMRRMHATWMLEV,3.14
23,YFKCVQKDIQPYMRRMIATWMLEV,2.65
24,YFKCVQKDIQPYMRRMKATWMLEV,2.5

row,Variant,protein stability index
1,YFKCVQKDIQPYMRRMLATWMLEV,2.28
2,YFKCVQKDIQPYMRRMMATWMLEV,2
3,YFKCVQKDIQPYMRRMNATWMLEV,2.15
4,YFKCVQKDIQPYMRRMPATWMLEV,2.44
5,YFKCVQKDIQPYMRRMQATWMLEV,2.63
6,YFKCVQKDIQPYMRRMRATWMLEV,3.03
7,YFKCVQKDIQPYMRRMSATWMLEV,1.77
8,YFKCVQKDIQPYMRRMTATWMLEV,3.15
9,YFKCVQKDIQPYMRRMWATWMLEV,4.01
10,YFKCVQKDIQPYMRRMVCTWMLEV,1.44
11,YFKCVQKDIQPYMRRMVDTWMLEV,2.37
12,YFKCVQKDIQPYMRRMVETWMLEV,3.2
13,YFKCVQKDIQPYMRRMVFTWMLEV,3.1
14,YFKCVQKDIQPYMRRMVHTWMLEV,2.17
15,YFKCVQKDIQPYMRRMVKTWMLEV,2.69
16,YFKCVQKDIQPYMRRMVLTWMLEV,3.85
17,YFKCVQKDIQPYMRRMVNTWMLEV,3.36
18,YFKCVQKDIQPYMRRMVPTWMLEV,2.96
19,YFKCVQKDIQPYMRRMVQTWMLEV,3.45
20,YFKCVQKDIQPYMRRMVRTWMLEV,4.17
21,YFKCVQKDIQPYMRRMVTTWMLEV,3.65
22,YFKCVQKDIQPYMRRMVWTWMLEV,2.98
23,YFKCVQKDIQPYMRRMVYTWMLEV,4.28
24,YFKCVQKDIQPYMRRMVAAWMLEV,3.42

row,Variant,protein stability index
1,YFKCVQKDIQPYMRRMVADWMLEV,1.97
2,YFKCVQKDIQPYMRRMVAEWMLEV,1.44
3,YFKCVQKDIQPYMRRMVAFWMLEV,2.85
4,YFKCVQKDIQPYMRRMVAGWMLEV,2.5
5,YFKCVQKDIQPYMRRMVAHWMLEV,3.25
6,YFKCVQKDIQPYMRRMVAIWMLEV,2.75
7,YFKCVQKDIQPYMRRMVAKWMLEV,3
8,YFKCVQKDIQPYMRRMVAMWMLEV,1.84
9,YFKCVQKDIQPYMRRMVANWMLEV,3.9
10,YFKCVQKDIQPYMRRMVAPWMLEV,1.41
11,YFKCVQKDIQPYMRRMVAQWMLEV,1.75
12,YFKCVQKDIQPYMRRMVARWMLEV,1.58
13,YFKCVQKDIQPYMRRMVASWMLEV,2.83
14,YFKCVQKDIQPYMRRMVAVWMLEV,2.61
15,YFKCVQKDIQPYMRRMVAWWMLEV,2.88
16,YFKCVQKDIQPYMRRMVAYWMLEV,3.88
17,YFKCVQKDIQPYMRRMVATAMLEV,2.36
18,YFKCVQKDIQPYMRRMVATCMLEV,3.44
19,YFKCVQKDIQPYMRRMVATDMLEV,1.63
20,YFKCVQKDIQPYMRRMVATEMLEV,3.61
21,YFKCVQKDIQPYMRRMVATFMLEV,2.34
22,YFKCVQKDIQPYMRRMVATGMLEV,1.95
23,YFKCVQKDIQPYMRRMVATHMLEV,2.88
24,YFKCVQKDIQPYMRRMVATIMLEV,2.57

row,Variant,protein stability index
1,YFKCVQKDIQPYMRRMVATKMLEV,1.84
2,YFKCVQKDIQPYMRRMVATLMLEV,4.58
3,YFKCVQKDIQPYMRRMVATNMLEV,1.24
4,YFKCVQKDIQPYMRRMVATPMLEV,2.58
5,YFKCVQKDIQPYMRRMVATQMLEV,2.61
6,YFKCVQKDIQPYMRRMVATRMLEV,2.17
7,YFKCVQKDIQPYMRRMVATSMLEV,2
8,YFKCVQKDIQPYMRRMVATTMLEV,2.18
9,YFKCVQKDIQPYMRRMVATVMLEV,3.41
10,YFKCVQKDIQPYMRRMVATYMLEV,3.49
11,YFKCVQKDIQPYMRRMVATWALEV,1.67
12,YFKCVQKDIQPYMRRMVATWCLEV,3.87
13,YFKCVQKDIQPYMRRMVATWDLEV,2.43
14,YFKCVQKDIQPYMRRMVATWELEV,2.72
15,YFKCVQKDIQPYMRRMVATWFLEV,1.96
16,YFKCVQKDIQPYMRRMVATWGLEV,2.52
17,YFKCVQKDIQPYMRRMVATWHLEV,2.08
18,YFKCVQKDIQPYMRRMVATWILEV,2.58
19,YFKCVQKDIQPYMRRMVATWKLEV,3.19
20,YFKCVQKDIQPYMRRMVATWLLEV,1.76
